These results are taken from a protein production outcome set (Wang et al. 2014).

A short description of this data set: label from the status in PepcDB records.
Regarding “MVRIRWFFIRHAESEANVVERWRIAGRSEAARLTERGERQARVVGEAVAIRLEQVLRVDGGDAGGVSGDAGRRRVLAPVAFTSPLLRARQTAALVLEQVAQPVKLEPVDDLAEVYQGLWEDALRSEVHTPETLQAMARNPYEFRAPGGEAQADVERRVLRAVSRMSQRVLSLLSLELEENEQTDVIVLVFTHGYVCKCLIRSVLDASPHLTGQIQVDNGALVELWLEPAAQQGALTSAAELGMWTVLRINDTWGQLTASMR”, the protein production result is recorded as “failed”.
Turning to “MVRKALLFVIDVALTYFAGVVALFSRFGFDFQEMSRYDESVIVYTVISAVVYILNGNYSIVWEYANARDFLILIRGSVISYLSNLAFFYVYRGIVLPRSVGFAVFLGSMVLLVLSRITWQWMIVNGRGKVPGEKRILIIGAGDAGVSILEEFEKHPHLGKIVAFVDDSPRKIGRKVRGVPVFGPIEKTMEFVEKMNVDEIVIAIPSASRAEMERILKSIDLKKVRVKTLPSVRELIEGRVRISHLKEISIEDLLGREEVKVDFHEIGKFLKGKKILVTGAGGSIGSELCKQIARMNPAEIFLLGHGETSIYLINEFLTEHFPEVKKKRIIADVADRKIMEHWLTQLRPDVIFHVAAHKHVPLMEENPLEAFRVNVLGTMNLVELSERLGVKYFVFISTDKAVNPTSVMGLTKRIAELYILSREKNSTNFSIVRFGNVLGSRGSVVEKFRRQIEKGGPVTVTDPRMKRYFMSIPEAVSLILQSLLFSSGKDLFILDMGEQIPILKLAETMIMLSGYTPYQDIKIVFTGIRPGEKMYEELLYPYEVKELTPHSKIFRVKTSVLPGKESVEQAINRMKEAFENSDVKGLLTEMKKLVPEAQINVGSDN”, the protein production result is given as “failed”.
With “MVRLEDYGTWDEALKRLEASRKALLALLREADPAWLSAPLREGAWTPLMVAEHVALVEDSTARVLRRLRRLAAGENLPPVPVKPGEFKDGKPQAPEGVRPKGGLSLEEVLALLDRARAFLLEEVAKADPQNPATFPHPFFGELNPLGWLRAAAYHEAHHLKALQASLPR”, the protein production entry is reported as “not failed”.
On to “MVRLFGPLVGLFFAVALLWSFGNGAYVAITEPAAPTAESVFHKHPKELDLASNGAFGRFDKQQLQRGFQVYKEVCATCHSLKQIAFRDLAALGYSEAEVKAIAKGWPTKAATFNPVTGDRGERDNIPSDRIPAVYYAGQGVPPDLSLMTKARHDGGAYVYSLLTGYAEQPAELLKQFPDAKTPDGLHYNPYFANLNLAMPAPLTTDGQVTYSDGTKASVDQMAKDVSAFLVWTAEPKLDKRKQTGWAVLGFLLVATVLAYLAKKNVWADKH”, for which the protein production entry is on record as “failed”.
Regarding “MVRMQTKAVMVFKLDEEGNAFYTQDIGDLYIFISRSEPFCVPASSFPGMFSNFVELLDVNENVTVDLSDYSMNGGFGYFGAPAHIPPQKLD”, the protein production result is “failed”.
Then “MVRPYGIKVNKRKEREERYDKEEDEVEEQPKFEQKQKARESSKKAKKESTSRAEEDNDEEEVTVEATAAAEDIVGGIPIVLNAPNKEKSGIVFVLEKASLEVAKVGKTYQLLNSDDHANFLKKNNRNPADYRPDITHQALLMILDSPVNKAGRLKAVYVRTEKGVLFEVKPHVRIPRTFKRFAGIMLQLLQKLSITAVNSREKLLRCVKNPIEEHHLPVNSHRIGFSHSSEKLVNMQKHLATVCDDDRDTVFVVGAMAHGKIDCNYIDEFVSVSEYPLSAAYCISRICEALATNWNII”, with “failed”; and “MVRRKKLLSGVLLLSGMLCTGRVMAQQWLYKQAAVPIEYRVKDLLGRMTIEEKVGQLCCPLGWEMYTKTGKNEVTVSELYKKKMAEAPVGSFWAVLRADPWTQKTLETGLSPELSAKALNALQKYAVEETRLGIPVLFAEECPHGHMAIGTTVFPTALSAASTWNEGLMLKMGEAIALEARLQGANIGYGPVLDVAREPRWSRMEETFGEDPVLTTIMGVAMMKGMQGKVQNDGKHLYATLKHFAAYGVPESGHNGSRANCGMRQLLSEYLPPFRKAVKEGAGTLMTSYNAIDGVPCTANKELLTDVLRNQWGFKGFVYSDLISIEGIVGMRAAKDNKEAAVKALKAGLDMDLGGNAFGKNLKKAYEEGLITMADLDRAVGNVLRLKFQMGLFENPYVSPELAKKLVHSKEHKELARQVAREGVVLLKNEGVLPLSKHIGHLAVIGPNADEMYNQLGDYTAPQVREEVATVLDGIRAAVSESTRVTYVKGCAVRDTTATDIPAAVAAAQKADAVVLVVGGSSARDFKTKYISTGAATVSEDAKTLPDMDCGEGFDRSSLRLLGDQEKLISAVASTGKPLVVVYIQGRTMNMNLAAEKAQALLTAWYPGEQGGMGIADILFGDYSPAGRLPVSVPRSEGQLPVFYSQGTQRDYVESKGTPLYAFGYGLSYTRFTYSGLELQKGTEMETLQTVACTVTNTGNRDGEEVVQLYIGDKVASVSQPPLLLKAFQRIFLKKGESRQVIFHLKKDDLGIYDSEMNYVVEPGEFKVMVGAASNDIRLEGEFVL”, with “failed”; and “MVSAFNTGRTDDVDEYIHPDYLNPATLEHGIHTGPKAFAQLVGWVRATFSEEARLEEVRIEERGPWVKAYLVLYGRHVGRLVGMPPTDRRFSGEQVHLMRIVDGKIRDHRDWPDFQGTLRQLGDPWPDDEGWRP”, with “not failed”.
Take “MVSRLEHPAGGYKKVFESCEELAEPIPAHVSGKIPAWLSGSLLRMGPGLFEIGDEPFNHLFDGQALIHKFDLKDGRVTYHRKFIRTDAYVRAMTEKRVVITELGTAAYPDPCKNIFSRFFTYFQGTEVTDNCSVNIYPIGEDFYACTETNFITKVNPDTLETIKKVDLCNYLSVNGLTAHPHIEADGTVYNIGNCFGKNMSLAYNIVKIPPLQEEKSDPLAMSKVLVQFPSSERFKPSYVHSFGMTENHFVFVETPVKINLLKFLTSWSIRGSNYMDCFESNDRMGTWFHLAAKNPGKYINNPSQ”: the protein production entry is “failed”.
For “MVTDADYRELRGATETPREAVVVGLAGEVGLTSAEIPRVRPCDVAPHDHDGVTHYFLAVPGADGGSDRDAYLPPAVERDIRRRADAAGLADDDPLVDVSARRVQTLVNAVAGRTDTAGLDGVAAQDLRSFFARRLLTGAGVDPRVVAAVGGWSRLASLDQYAAVDALEHHHHHH”, the protein production entry is “failed”.
Then “MVTGIVFHEEYLKHEQSPTHPERRERLAYTMDQLREEGIFESERIVLLEPFKASLEDVLEVHTEEYVRFLEMESKKGGIIDFDTNIPVGVFDRALLAAGGAIRAAQAVLNKECENAFAMIRPPGHHAKPYIGAGFCYLNNMAIMVKWLLKQGFERIAILDWDAHHGDGTQEIFYNDDRVLFISTHQMPLYPGTGYPEECGTGKGEGYTVNIPLPPGTGDEGYMMVIDEIIEPVVNEFKPQFIAISAGQDNHFTDPITSLALTARGYAEMMRRAVAMAEKHCDGRLVAVLEGGYSVEGALPYTNLGIIAAMAGFDLSAIREPENYLPELLWRKRDSALVKLKHNIEDVKRVHSKYWKCFK”, with “failed”; and “MVTLQAFQPLIDTVQGSLLLASPDDGHIYCANQLACILLASPHSELLKSSVYDFLPDKNEAYTICRELAGNNMIYNRGMQLSTSTGRIFDVQLSARRISLDQVPLLVVSFSDRTETKVLGQLLDFERQLVERSLSIVKTLKEEGRQNDDEDKLTGVVGMHRLMSSAHSETSRAKRYGGSLSGLALELVNVPEMVPREDDGSAYGHLIRLAGSLCLQSSRDSDLVARRSANTFVILLPHTAIGGANEMGRRLIKSLRQLTFLYQGTEHQAAACVGISALRPEESSPTPMLERLEEALKKARDGGANYIIQLP”, with “failed”; and “MVTNKLITLLPDLATFIVVVNEGSFTAAAKKLGVTPSALSKLITRLENALSVKLFERTTRSLLITESGKKIYQQSVIMVEAAQQAVDISSSEHTVPSGSLTVAAPKAFLTIVLQPLITPFLTKYPKIQLKLRASDGDIDMIAQGIDVVFRLTDKPTEGLVMKEIGKVNLSLCASPTYLEERGIPHLPQELANHDCLFLGETTTDHIWEFVKGTESHVIAVSGRYAVNHSQMRLNGVKDGFGIGIFPDFVIKEALANNEVISVLSDWQIKGNYHGVIAMQYAQNKYIPSRLKVFTEFVKENLMKSKVNDERT”, with “not failed”.
In the case of “MVTPFPEVSEWLCIGQIVGAHGLRGEVKVKPFSDFPERFTVPGCRWLRSPRQPQPYAVTLLRGRFLPRAEQFVVTFAEISDRTAAEALKGAEILVPASDRPPLAANEYHLMDLIGLAVYHQGERVGEVVGLVNAGNDLLEVQLLDPAPKAPQSVYIPFVPAIVPVVDLAARRIEIDPPLGLLPLEHHHHHH”, the protein production result is listed as “failed”.
To “MVTREEFVARFGGVFEHSPFIAERAYDAGGAGLELTAKAVHGALCAQFRVASEAERLGVLRAHPDLAGKLAIAGELTADSRNEQAGAGLDRLSPQEHARFTQLNSAYTEKFGFPFIIAVKGLNRHDILSAFDTRIDNNAAQEFATATGQVEKIAWLRLASMLPEG” belongs “not failed”; to “MVVNTLGRYFARRFVIASLGVFFGLFVLLVFVDYVDLLRRAGGLAVSAFYVAQASFCRVPQLLERLLPFCILIGGMTCYLALSRSLELVVARAAGLSAWEFISPALWSAIAIGIFATTVFNPLSAHMQERAKQMEAEMFGENTGGLQDANGFWMNQVSPDGQAIINAARSQQQGAVLTGITVFRFEPDFQFKDRIEAREAVLEPGHWLLKNVRRYTMDGAPVDQDTLELPTSLTLAQVRNSFATPESVSFWQLPTYIKSSENSGFATAGYRLQYHKLLAKPFLLAAMVMLAASVSLRFFRFGGVQKMVLSGVAAGFLLYILSKVTEDLSKAELMHPLAAAWLPVCVGGLAGFLALLYQEDG”, “failed”.
For the sequence “MVVSTDQAHSLGDVLGIAVPPTGQGDPVRVLAYDPEAGGGFLDALALDTLALLEGRWLHVVETLDRRFPGSELSSIAPEELCALPGIQEVLGLHAVGELAAARRWDRIVVDCASTADALRMLTLPATFGLYVERAWPRHRRLSIGADDGRSAVLAELLERIRASVERLSTLLTDGALVSAHLVLTPERVVAAEAVRTLGSLALMGVRVEELLVNQLLVQDENYEYRSLPDHPAFHWYAERIGEQRAVLDDLDATIGDVALVLVPHLAGEPIGPKALGGLLDSARRRQGSAPPGPLQPIVDLESGSGLASIYRLRLALPQLDPGTLTLGRADDDLIVSAGGMRRRVRLASVLRRCTVLDAHLRGGELTVRFRPNPEVWPT”, the protein production entry was “failed”.
For “MVVVMNPEQIYGVSNIKSHIPVMLDIEESNYDAWRELFLTHCLSFDVMGHIDGTLLPTNANDVNWQKRDGIVKLSLYGTLTPKQFQGSFVTSSTSRDIWLRIKNQFRNNKDARALRLDSELRTKDIGDMRVADYYRKMKKLADSLRNVDVPVTDRNLVMYVLNGLNPKFDNIINVIKHRQPFPSFDDAATMLQEEEDRLKRAIKPNPTHVDHSSSSTVLACSEAPPVTNFQRSGGNQMGYRGRGRGNNIFRGRGGRFSYYNMPTFNSWNRPPFYQNSYQMWNHPWGYPPYVNTNGGNGLGLLGPRPAY”, the protein production entry is “failed”.
With “MVWLWCVLHLLVAALGTWGLRRYALHRRLLDHPGERRSHVVATPRGGGMAIVAAILLGCVAACALWPTSRLTVCWFAAGLVAVAGVGWWDDHRPLSARLRFSIHLAASVALGALVWHGTGSVWDGVLTAAASVMLINVWNFMDGINGLASTQAALAALGFSLVAPVGWSWAGLAVAAACLGFVPFNFPRARIFMGDGGSGALGYVLAALLALNVAGGQVSWWISWLPLTAFLVDAGFTLLARMLSGQRWWEPHAQHVYQRLARRLETHVPVTGVYFAFSLIAVCLYLLIRHDPFWLQVSGALVWGMGATAIWHFLRDGLRNS”, the protein production result was “failed”.
For “MVYELVYELVYAKIYTNKRIPIREDPCMARTTRPLTHTEVQKAKATDKDLTLHDGDGLFLLVKTTGKKIWRFRYQVPGTSKRTMISLGAYPALSLADAREVRSEKLAILVKGIDPQARAGEEAEKLQIAQESIFVNVARKWFELKQSHVSADHAKDIWRSIEKDILPSIENVPIQELKARTLIQVLEPIKARGALETVRRLVQRINEIMIYAVNVGLIEANPASGIGNAFERPKKQHMPIIRPEELPKLMRTISMSNLSIPTRCLLEWQLLTLIRPAEASATAWSEIDIENKQWCIPAERMKAKRDHIVPLSEQALELLEIMRPISGNRQYVFPSRNDPRKPMNSQTANAALKRIGYSGKLVAHGLRSIASTAMNEAGFNADVIEAALAHSDKNEVRRAYNRSTYLTQRVELLGWWGEFVNRTQVI”, the protein production result was “failed”.
